Common to all, as to test: enzyme inhibition kinetics
The target in assay [1] is Factor Xa (activated factor X), plasma protein.
In assay [2] the target is Bovine α-chymotrypsin (bovine).
For assay [3], the target named is fXa-D189S (factor Xa with Asp-189 replaced by Ser).
Assay [4] deals with Factor Xa (activated factor X), plasma protein. This is another data set of the same source.
Assay [5] has as its target fXa-D189S (factor Xa with Asp-189 replaced by Ser). The source holds these as a separate data set.

These results are taken from publication PMC2844450.

In assay [1], “Human wild-type antithrombin (from UniProt P01008 33-464) (natural protein)” returned a k2 (second-order association rate constant of inhibition), no heparin of 3090 M⁻¹ s⁻¹ and a k2 with heparin of 4.35e+07 M⁻¹ s⁻¹. The k2 (second-order association rate constant of inhibition), no heparin in assay [2] was found to be 83 M⁻¹ s⁻¹. In assay [3], the KD with heparin (ternary encounter complex, first step) came to 0.194 µM; the k2 with heparin was determined as 1.02e+06 M⁻¹ s⁻¹; the k2 with heparin (k/KD) was 1e+06 M⁻¹ s⁻¹.
As for “ZPI in complex with protein Z (PZ) (from UniProt Q9UK55 22-444; P22891 41-400)”, the figures for the k2 (second-order rate constant of inhibition), presence of PZ in assay [1] and in assay [3] were 780000 and 830000, respectively.

B1: Protein Z-dependent protease inhibitor, wild type (natural protein)
chain: LAPSPQSPETPAPQNQTSRVVQAPKEEEEDEQEASEEKASEEEKAWLMASRQQLAKETSNFGFSLLRKISMRHDGNMVFSPFGMSLAMTGLMLGATGPTETQIKRGLHLQALKPTKPGLLPSLFKGLRETLSRNLELGLTQGSFAFIHKDFDVKETFFNLSKRYFDTECVPMNFRNASQAKRLMNHYINKETRGKIPKLFDEINPETKLILVDYILFKGKWLTPFDPVFTEVDTFHLDKYKTIKVPMMYGAGKFASTFDKNFRCHVLKLPYQGNATMLVVLMEKMGDHLALEDYLTTDLVETWLRNMKTRNMEVFFPKFKLDQKYEMHELLRQMGIRRIFSPFADLSELSATGRNLQVSRVLQRTVIEVDERGTEAVAGILSEITAYSMPPVIKVDRPFHFMIYEETSGMLLFLGRVVNPTLL
In the case of B1, the k2 (second-order rate constant of inhibition), absence of PZ was 1900 in assay [4] and 2300 in assay [5].
